How the values were obtained:
HA-tagged KMT2D S1331A = HA-tagged KMT2D S1331A (UniProt O14686)
[1] = biological target: V5-tagged KMT2D fragment (1222-1819) (UniProt O14686)
[2] = biological target: HA-tagged KMT2D (full length, wild type) (UniProt O14686)

Chain of recombinant His-AKT (MRC-PPU Reagents DU1850) (P31749 whole entry, the tested form may be a part): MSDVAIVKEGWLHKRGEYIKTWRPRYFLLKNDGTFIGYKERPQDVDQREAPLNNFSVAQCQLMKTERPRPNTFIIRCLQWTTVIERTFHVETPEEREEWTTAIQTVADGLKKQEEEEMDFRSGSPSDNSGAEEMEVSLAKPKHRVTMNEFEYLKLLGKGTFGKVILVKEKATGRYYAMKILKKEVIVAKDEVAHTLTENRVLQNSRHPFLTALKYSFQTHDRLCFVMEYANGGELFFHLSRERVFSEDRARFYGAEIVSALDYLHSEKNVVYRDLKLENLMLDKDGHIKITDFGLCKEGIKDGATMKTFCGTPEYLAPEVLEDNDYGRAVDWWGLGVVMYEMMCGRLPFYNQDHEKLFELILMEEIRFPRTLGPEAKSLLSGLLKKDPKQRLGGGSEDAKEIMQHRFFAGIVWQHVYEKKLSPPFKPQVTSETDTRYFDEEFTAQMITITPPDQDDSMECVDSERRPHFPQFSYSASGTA

recombinant His-AKT (MRC-PPU Reagents DU1850)
in vitro kinase assay; phosphorylation detected by phospho-RXRXX(S/T) and phospho-KMT2D (S1331) antibodies (HA-tagged KMT2D S1331A): Mutation of serine to alanine (S1331A) completely abrogated the ability of AKT to phosphorylate KMT2D in vitro | in vitro kinase assay with the KMT2D (1222-1819) fragment as substrate (FIG. 11C) [1]: The kinase assay confirmed the ability of AKT to directly phosphorylate S1331 | in vitro kinase assay; phosphorylation detected by phospho-RXRXX(S/T) and phospho-KMT2D (S1331) antibodies [2]: The kinase assay confirmed the ability of AKT to directly phosphorylate S1331

Reference: US20190270997
